Data from the nanobody polyreactivity screen of Harvey et al. (2022).

Experiment: yeast display, Sf9 membrane polyspecificity reagent, FACS + sequencing; frameworks hold sequencing errors
Method in brief: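 A nanobody's polyreactivity label depends on the gate it was sorted from. Yeast display cells were stained with 10% biotinylated, detergent-solubilized Sf9 membrane reagent for 1 hour at 4 °C, enriched on streptavidin microbeads and sorted by FACS. The low and high (top ~1%) gates were set on anti-HA fluorescence for expression and streptavidin fluorescence for reagent binding.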

Sequence | polyreactivity (PSR sort gate)
QVQLVESGGGLVQAGGSLRLSCAASGNIFTSYAMGWYRQAPGKERELVAAISSGGRTSYADSVKGRFTISRDNAKNTVYLQMNSLKPEDTAVYYCAAYYRRWPREYYYWGQGTQVTVSS | high polyreactivity
QVQLVESGGGLVQAGGSLRLSCAASGNIFTTYAMGWYRQAPGKERELVAAISRTGGRTSYADSVKGRFTISRDNAKNTVYLEMNSLKPVDTAVYYCADTLWRQSNLEYWGQGTQVTVSS | high polyreactivity
QVQLVESGGGLVQAGGSLRLSCAASGNIFVFYVMGWYRQAPGKERELVASISSTGNTYYADSVKGRFTISRDNAKNTVYLQMNSLKPEDTAVYYCAAEYYSIRYGPHSIEVYGMDYWGQGTQVTVSS | low polyreactivity
QVQLVESGGGLVQAGGSLRLSCAASGNIFVRYVMGWYRQAPGKERELVAAITTSGGSTRYADSVKGRFTISRDNAKNTVYLQMNSLKPEDTAVYYCAARFRYRHLTYGYWGQGTQVTVSS | high polyreactivity
QVQLVESGGGLVQAGGSLRLSCAASGNIFWRYAMGWYRQAPGKERELVAAISRRGGSTYYADSVKGRFTISRDNAKNTVYLQMNSLKPEDTAVYYCAASHSTWFSDPYGYWGQGTQVTVSS | low polyreactivity
QVQLVESGGGLVQAGGSLRLSCAASGNIFYIYAMGWYRQAPGKERELVASISGRGGRTYYADSVKGRFTISRDNAKNTVYLQMNSLKPEDTAVYYCAADGYRTYSEMDYWGQGTQVTVSS | high polyreactivity
QVQLVESGGGLVQAGGSLRLSCAASGNIFYKNNMGWYRQAPGKERELVAAISFSGGGTYYADSVKGRFTISRDNAKNTVYLQMNSLKPEDTAVYYCAAEYTYGWTYRPFDYWGQGTQVTVSS | high polyreactivity
QVQLVESGGGLVQAGGSLRLSCAASGNIFYNGMGWYRQAPGKERELVAAIRGSAGRTYADSVKGRFTISRDNAKNTVYLQMNILKPEDTAVYYCAAAKRYYSEMYWGQGTQVTVSS | high polyreactivity
QVQLVESGGGLVQAGGSLRLSCAASGNIFYPNAMGGSRQAPGKERGLVAAISSSGGSTYYADSVKGRFTISRDNAKNTVYLQINSLKPEDTAVYYCAKDRSYAYYWSPYPTGYDYWGQGTQVTVSS | low polyreactivity
QVQLVESGGGLVQAGGSLRLSCAASGNIFYTNAMGWYRQAPGKERELVATISRSVGSTYYADSVKGRFTISRDNAKNTVYLQMNSLKPEDTAVYYCAASRLLSALTAYSWGFNYWGQGSQVTVSS | high polyreactivity
QVQLVESGGGLVQAGGSLRLSCAASGNIFYVYVMGWYRQAPGKERELVAAISRGGGSTYYADSVKGRFTISRDNAKNTVSLQMNSLKPEDTAVYYCAARRGYPSGYEYWGQGTQVTVSS | high polyreactivity
QVQLVESGGGLVQAGGSLRLSCAASGNIFYWNVMGWYRQAPGKERELVAVISNGGRTYYADSVKGRFTISRDNAKNTVYLQMNSLKPEDTAVYYCAAEYDRLSKRYDYWGQGTQVTVSS | high polyreactivity
QVQLVESGGGLVQAGGSLRLSCAASGNIIDANAMGWYRQAPWKERELVAAITSSGGSTYYADSVKGRFTISRDNAKNTVYLQMNSLNPEDTAVYYCAKSHAIYYWWDESWGQGTQVTVSS | low polyreactivity
QVQLVESGGGLVQAGGSLRLSCAASGNIIRKYAMGWYRPAPGKERELVAAITASGGRTFYADSVKGRFTISRDNAKNTVDLQMNSLKPEDTAVYYCATRDSPRTKNGYYYWGQGTQVTVSS | high polyreactivity
QVQLVESGGGLVQAGGSLRLSCAASGNIIRSYMGWYRQAPGKERELVASISRRGGSTYYADSVKGRFTISRDNAKNTVYLHMNSLKPEDTAVYYCARRWSWVNGVFGYYWGQGTQVSVSS | high polyreactivity
QVQLVESGGGLVQAGGSLRLSCAASGNILFYNSMGWYRQAPGKERELVAAISRSAGSTYYADSVKGRFTISRDNAKNTVYLQMNRLKAEDTAVYYCAAQYFRRSGYWGQGTQVTVSS | high polyreactivity

Sequence | polyreactivity (PSR sort gate)
QVQLVESGGGLVQAGGSLRLSCAASGNILLFNAMGWYRQAPGKERELVATINQSGGRTYYADSVKGRFTISRDNAKNTVYLQMNSLKPEDTAVYYCNAPGSPVVQQPGYYWGQGTQVTVSS | low polyreactivity
QVQLVESGGGLVQAGGSLRLSCAASGNILRGYAMGWYRQAPGKERELVAAINRGGGSTYYADSVKGRFTISRDYAKNTVYFQMNSLKPEDTAVYYCAARYPHRGYTFDYWGQGTQVTVSS | low polyreactivity
QVQLVESGGGLVQAGGSLRLSCAASGNILWFNAMGWYRQAPGKERELVASISSSGGRTYYADSVKGRFTISRDNAKNTVYLQMNSLKPEDTAVYYCAAEYYYGWTYSGGLGFLGYNYWGQGTQVTVSS | low polyreactivity
QVQLVESGGGLVQAGGSLRLSCAASGNIRNYGLGWYRQAPGKERELVAAITVSGSRTYYADSVKGRFTISRDNAKNTVYLQMNSLKPEDTAVSYCAARGYNTLTRYDYWGQGTQVTVTS | high polyreactivity
QVQLVESGGGLVQAGGSLRLSCAASGNNFYINAMGSYRQAPGKERELVAAIRGGGSTYYADSVKGRFTISRDNAKNTVYLQMNSLKPEDTAVYYCAARGRRLNPQYRAFGMDYWGQGTQVTVSS | high polyreactivity
QVQLVESGGGLVQAGGSLRLSCAASGNSFSQYAMGWYRQAPGKERELVATISKSSGSTYYADSVKGRFTISRDNAKNTVYLQMNSLKPEDTAVYSCNAVSSDVYHHLGVLFFSTWYDYWGQGTQVTLSS | low polyreactivity
QVQLVESGGGLVQAGGSLRLSCAASGNTFAAYAMGWYRQAPGKEWELVAAITTSGGITYYADSVKGRFTISRDNAKNTVYLQMNSLKPEDTAVYYCAVDGGRWGQGTQVTVSS | low polyreactivity
QVQLVESGGGLVQAGGSLRLSCAASGNTFADYAMGWYSQAPGKERELVADLTFSGGGTYYADSVKGRFTISRDNAKNTVYLQMNSLKPEDTPVYDCNADLDSYVGDEYDHWGQGTQVTVSS | low polyreactivity
QVQLVESGGGLVQAGGSLRLSCAASGNTFAPYAMGWYRQAPGKERELVATISYRGGSTNYADSVKGRFTISRDNAKNTVYLQMNSLKPEDTAVYYCNARYRWVVNRYSASGGSYNYWGQGTQVTVSS | high polyreactivity
QVQLVESGGGLVQAGGSLRLSCAASGNTFAYNVMGWYRQAPGKERELVAAISRSGGSTYYADSVKGRFTISRDNAKNTVYLQMNSLKPEDTAVYYCAAVGRRVRPEGSYNRWGHDYWGQGTQVTVSS | high polyreactivity
QVQLVESGGGLVQAGGSLRLSCAASGNTFDEYAMGWYRQAPGKEREFVAAIRNTYYADSVKGRFTISRDNAKNTVYLQMNSLKPEDTAVYYCAKPSQLHPYEYWGQGTQVTVSS | low polyreactivity
QVQLVESGGGLVQAGGSLRLSCAASGNTFEYYTMGWYRKAPGKERELVASIDWSTTSTYYADSVKGRFTISRDNAKNTVYLQMNSLKPEDTAVYYCNTVYDYYHLGLYSGFRYHYWGQGTQGTVSS | low polyreactivity
QVQLVESGGGLVQAGGSLRLSCAASGNTFGHYTMGWYRQAPGKERELVAAISWDDSSTNYADSVKGRFTISRDNAKNTVYLQMNILKPEDTAVYYCAKETELRTQYPYVYDYWGQGSQVTVSS | low polyreactivity
QVQLVESGGGLVQAGGSLRLSCAASGNTFGPYDMGWYRQSPGKERELVAGITSGGSTYYADSVKGRFTISRDNAKNTVYLQMNSLKPEDTAVYYCAADDYLWVYWYDYWGQGTQVTVSS | high polyreactivity
QVQLVESGGGLVQAGGSLRLSCAASGNTFGRYAMGGYRQAPGKERELVAAISWSGGSTYSADSVKGRFTISRDNAKNSLYLQMNSLKPEDTAVYYCAANSWRGFEYWGQGTQVTVSS | high polyreactivity
